In patent publication US20240400657A1 (MorphoSys, published 2024):

How the values were obtained:
[1] = target: T1, cynomolgus C5aR_NT-bio peptide (cynomolgus monkey, biotin tag (position not given)); test: SPR (Biacore T200), IgG captured on anti-human-Fc, peptide as analyte, 1:1 fit, monovalent; value marked * (for ranking purposes; fast kon, fast koff)
T1 construct: Chemically synthesized linear peptide (Genscript); also called cynomolgus C5aR N-terminal peptide; cynomolgus C5aR peptide
T1 peptide: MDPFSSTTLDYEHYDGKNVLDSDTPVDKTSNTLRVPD

[2] = target: T2, full-length human C3aR expressed on CHO Flp-In cells (human, UniProt Q16581 1-482); test: FACS, CHO Flp-In cells expressing human C3aR, single IgG concentration
T2 construct: also called C3a anaphylatoxin chemotactic receptor
T2 sequence: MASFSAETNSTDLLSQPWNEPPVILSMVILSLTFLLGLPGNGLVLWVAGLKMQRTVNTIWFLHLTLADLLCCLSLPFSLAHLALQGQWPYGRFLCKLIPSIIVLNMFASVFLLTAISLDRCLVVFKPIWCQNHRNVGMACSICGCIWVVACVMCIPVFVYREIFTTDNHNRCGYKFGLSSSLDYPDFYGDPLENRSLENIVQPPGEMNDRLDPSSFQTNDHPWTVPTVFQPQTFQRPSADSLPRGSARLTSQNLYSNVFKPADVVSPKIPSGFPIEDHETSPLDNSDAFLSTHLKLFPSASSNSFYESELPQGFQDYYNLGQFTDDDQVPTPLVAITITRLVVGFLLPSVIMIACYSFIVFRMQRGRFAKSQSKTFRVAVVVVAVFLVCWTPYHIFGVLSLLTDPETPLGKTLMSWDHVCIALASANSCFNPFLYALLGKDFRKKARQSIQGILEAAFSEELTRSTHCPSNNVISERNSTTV

[3] = target: T3, full length rat C5aR stably expressed on CHO Flp-In cells (rat (Rattus norvegicus), UniProt P97520 1-352); test: FACS, CHO Flp-In cells expressing rat C5aR, single IgG concentration
T3 sequence: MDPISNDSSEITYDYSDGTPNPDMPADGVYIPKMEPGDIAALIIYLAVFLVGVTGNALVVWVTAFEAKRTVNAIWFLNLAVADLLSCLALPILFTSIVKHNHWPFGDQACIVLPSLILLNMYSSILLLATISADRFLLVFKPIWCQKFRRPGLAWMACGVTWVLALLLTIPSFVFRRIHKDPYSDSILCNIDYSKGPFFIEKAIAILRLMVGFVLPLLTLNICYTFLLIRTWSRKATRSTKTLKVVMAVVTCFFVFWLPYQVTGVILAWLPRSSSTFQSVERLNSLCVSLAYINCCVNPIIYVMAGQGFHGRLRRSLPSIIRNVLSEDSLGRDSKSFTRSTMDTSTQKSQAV

[4] = target: T4, C5aR expressed on purified cynomolgus neutrophils (cynomolgus monkey (Macaca fascicularis)); test: FACS on purified cynomolgus neutrophils, IgG titration
T4 construct: Endogenous receptor on neutrophils from whole blood of three animals; also called cynomolgus C5aR expressed endogenously
T4 chain: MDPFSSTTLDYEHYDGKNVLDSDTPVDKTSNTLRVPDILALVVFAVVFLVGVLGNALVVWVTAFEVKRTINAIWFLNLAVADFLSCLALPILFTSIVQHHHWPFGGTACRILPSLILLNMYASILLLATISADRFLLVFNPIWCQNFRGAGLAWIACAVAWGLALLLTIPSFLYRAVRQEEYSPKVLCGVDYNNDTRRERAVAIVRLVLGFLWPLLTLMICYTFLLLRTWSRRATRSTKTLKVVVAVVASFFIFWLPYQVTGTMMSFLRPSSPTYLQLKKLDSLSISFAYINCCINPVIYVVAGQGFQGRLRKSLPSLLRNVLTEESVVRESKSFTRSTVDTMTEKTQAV
Method: Neutrophils were purified from EDTA-whole blood samples using a MACSexpress® Neutrophil Isolation Cocktail from Miltenyi Biotec. Briefly, using this kit, cells are isolated using magnetic labeling and negative magnetic separation. […] Measurements were done at the FACS Array device. FACS data were evaluated using FlowJo™, entered into GraphPad® Prism (v4.0) and fitted to the sigmoidal dose-response curve using non-linear regression to calculate the EC50.

[5] = target: T5, human C5aR_NT-bio peptide (human, biotin tag (position not given)); test: BLI (Octet HTX), biotinylated peptide on SA sensors, IgG as analyte, 1:1 fit, apparent (bivalent)
T5 construct: Chemically synthesized linear peptide (Genscript); also called human C5aR N-terminal peptide; human C5aR peptide
T5 peptide: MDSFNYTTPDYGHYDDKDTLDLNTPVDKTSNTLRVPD

Amyloglycosidase = test: Protein Panel Profiling (3P), MSD ECL, coated antigen, IgG 10 nM
Method: (§1) 32 different proteins and controls were coated on two 384-well MSD standard plates at a concentration of 1.0 μg/mL at 4° C. over night. The coating solution was discarded and plates were blocked with 50 μL 3% (w/v) BSA in PBS for one hour at RT on a microtiter plate shaker (˜500 rpm) followed by three washing steps with 50 μL washing buffer (PBS with 0.05% (v/v) Tween 20). IgG samples were diluted to 100 nM and 10 nM in assay buffer (PBS with 0.5% (w/v) BSA, 0.05% (v/v) Tween 20). As controls, isotype control antibody MOR03207 (IgG1f_AEASS) and assay buffer were used. Samples and controls were added at 30 μL/well and incubated for three hours at RT on a microtiter plate shaker. The plates were washed three times and 30 μL detection antibody (ECL-labeled anti-human Fab) were added per well and incubated for one hour on a microtiter plate shaker (˜500 rpm). After washing the MSD plate and adding 35 μL/well MSD Read Buffer T with surfactant, electro-chemiluminescence signals were detected using a SECTOR® Imager S600 instrument (Meso Scale Diagnostics).
(§2) For evaluation, binding signals of the antibody sample to a certain protein were divided by the respective binding signals of the reference antibody MOR03207 resulting in a binding ratio (BR). The cumulative binding ratio (CBR) of all proteins except the controls (25 in total) was then calculated: CBR up to 150 indicates an IgG without detectable unspecific binding. Values above 150 indicates an IgG with increased unspecific binding compared to the reference antibody MOR03207.

RNase A = test: as above
Method: as §1, §2

Antitrypsin = test: as above
Method: as §1, §2

Trypsin inhibitor = test: as above
Method: as §1, §2

Lysozyme = test: as above
Method: as §1, §2

Hemoglobin (h) = target: T6, Hemoglobin (h) (human); test: as above
T6 construct: '(h)' on the sheet read as human
Method: as §1, §2

anti-human Fc = target: T7, anti-human Fc; test: as above
T7 construct: control of the 3P panel; it captures human IgG as such, so a ratio of 1 means a signal equal to that of MOR03207
Method: as §1, §2

Fc (h) = target: T8, Fc (h); test: as above
T8 construct: '(h)' on the sheet read as human
Method: as §1, §2

Pepsinogen = test: as above
Method: as §1, §2

Trypsinogen = test: as above
Method: as §1, §2

Protein A = target: T9, Protein A; test: as above
T9 construct: control of the 3P panel
Method: as §1, §2

Ovalbumin = test: as above
Method: as §1, §2

[6] = target: T10, Cell surface rec. 1_Lys (h); test: as above
T10 construct: identity not disclosed
Method: as §1, §2

Chain of Ovalbumin (P01012 2-386): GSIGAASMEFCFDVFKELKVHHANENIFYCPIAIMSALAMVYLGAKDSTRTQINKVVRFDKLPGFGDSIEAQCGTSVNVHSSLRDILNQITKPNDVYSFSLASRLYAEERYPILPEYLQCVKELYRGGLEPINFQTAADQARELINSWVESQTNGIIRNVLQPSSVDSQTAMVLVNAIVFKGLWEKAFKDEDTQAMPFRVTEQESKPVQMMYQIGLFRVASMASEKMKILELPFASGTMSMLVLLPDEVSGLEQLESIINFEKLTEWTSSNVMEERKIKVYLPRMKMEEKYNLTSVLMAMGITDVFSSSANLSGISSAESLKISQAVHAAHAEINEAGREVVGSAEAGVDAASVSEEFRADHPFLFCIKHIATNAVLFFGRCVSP
T6 sequence (P69905 2-142, chain 1 of 2): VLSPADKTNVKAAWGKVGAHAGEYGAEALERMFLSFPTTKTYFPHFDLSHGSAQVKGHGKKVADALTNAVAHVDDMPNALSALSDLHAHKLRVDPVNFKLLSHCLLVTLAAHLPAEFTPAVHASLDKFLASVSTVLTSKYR
T6 sequence (P68871 2-147, chain 2 of 2, further chain): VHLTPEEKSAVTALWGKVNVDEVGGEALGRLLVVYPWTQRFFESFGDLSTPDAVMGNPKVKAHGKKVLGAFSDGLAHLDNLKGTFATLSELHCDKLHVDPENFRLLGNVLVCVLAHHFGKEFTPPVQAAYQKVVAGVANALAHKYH
Chain of RNase A (P61823 27-150): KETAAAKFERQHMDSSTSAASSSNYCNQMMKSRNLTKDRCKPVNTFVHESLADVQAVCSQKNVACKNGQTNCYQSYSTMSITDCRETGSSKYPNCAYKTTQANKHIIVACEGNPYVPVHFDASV
Chain of Lysozyme (P00698 19-147): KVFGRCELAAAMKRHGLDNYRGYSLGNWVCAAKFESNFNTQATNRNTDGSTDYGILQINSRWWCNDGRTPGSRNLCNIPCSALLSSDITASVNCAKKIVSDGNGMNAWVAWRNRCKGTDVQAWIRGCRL

B1: MAB #2 (antibody, human IgG1, lambda)
heavy: EVQLVESGGGLVKPGGSLRLSCAASGFTFSSYAMHWVRQAPGKGLEWVGRIKSVAQGGTTDYAAHVKGRFTISRDDSKNTLYLQMNSLKTEDTAVYYCARVSHSTFDVWGQGTLVTVSSASTKGPSVFPLAPSSKSTSGGTAALGCLVKDYFPEPVTVSWNSGALTSGVHTFPAVLQSSGLYSLSSVVTVPSSSLGTQTYICNVNHKPSNTKVDKRVEPKSCDKTHTCPPCPAPEAEGAPSVFLFPPKPKDTLMISRTPEVTCVVVDVSHEDPEVKFNWYVDGVEVHNAKTKPREEQYNSTYRVVSVLTVLHQDWLNGKEYKCKVSNKALPSSIEKTISKAKGQPREPQVYTLPPSREEMTKNQVSLTCLVKGFYPSDIAVEWESNGQPENNYKTTPPVLDSDGSFFLYSKLTVDKSRWQQGNVFSCSVMHEALHNHYTQKSLSLSPGK
light: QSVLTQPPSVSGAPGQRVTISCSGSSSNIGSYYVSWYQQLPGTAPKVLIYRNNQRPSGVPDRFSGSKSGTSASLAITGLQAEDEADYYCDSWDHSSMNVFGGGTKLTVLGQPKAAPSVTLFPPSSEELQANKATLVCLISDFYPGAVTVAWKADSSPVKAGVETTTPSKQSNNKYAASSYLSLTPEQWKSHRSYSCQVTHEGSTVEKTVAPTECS
notes: lambda 1 light chain
For B1, the Kd [1] was 34000 nM, the koff [1] was 0.145 s⁻¹ and the kon [1] was 4290 M⁻¹ s⁻¹. For the same binder, the binding result [2] was “no binding (tested: 300 nM)”, the binding result [3] was “no binding (tested: 300 nM)” and the EC50 [4] was 3.8 nM. For the same binder, the Kd [5] was 0.29 nM, the koff [5] was 0.000111 s⁻¹ and the kon [5] was 378000 M⁻¹ s⁻¹. For the same binder, the “binding ratio (signal / signal of MOR03207)” value (Amyloglycosidase) was 1, the “binding ratio (signal / signal of MOR03207)” value (RNase A) was 2 and the “binding ratio (signal / signal of MOR03207)” value (Antitrypsin) was 2. For the same binder, the “binding ratio (signal / signal of MOR03207)” value (Trypsin inhibitor) was 3, the “binding ratio (signal / signal of MOR03207)” value (Lysozyme) was 1 and the “binding ratio (signal / signal of MOR03207)” value (Hemoglobin (h)) was 1. For the same binder, the “binding ratio (signal / signal of MOR03207)” value (anti-human Fc) was 1, the “binding ratio (signal / signal of MOR03207)” value (Fc (h)) was 1 and the “binding ratio (signal / signal of MOR03207)” value (Pepsinogen) was 1. For the same binder, the “binding ratio (signal / signal of MOR03207)” value (Trypsinogen) was 1, the “binding ratio (signal / signal of MOR03207)” value (Protein A) was 1 and the “binding ratio (signal / signal of MOR03207)” value (Ovalbumin) was 1. The “binding ratio (signal / signal of MOR03207)” value [6] was 1.

B2: MAB #1 (antibody, human IgG1, lambda)
heavy: EVQLVESGGGLVKPGGSLRLSCAASGFTFSSYAMHWVRQAPGKGLEWVGRIKSKAQGGTTDYAAHVKGRFTISRDDSKNTLYLQMNSLKTEDTAVYYCARVSFSTFDVWGQGTLVTVSSASTKGPSVFPLAPSSKSTSGGTAALGCLVKDYFPEPVTVSWNSGALTSGVHTFPAVLQSSGLYSLSSVVTVPSSSLGTQTYICNVNHKPSNTKVDKRVEPKSCDKTHTCPPCPAPEAEGAPSVFLFPPKPKDTLMISRTPEVTCVVVDVSHEDPEVKFNWYVDGVEVHNAKTKPREEQYNSTYRVVSVLTVLHQDWLNGKEYKCKVSNKALPSSIEKTISKAKGQPREPQVYTLPPSREEMTKNQVSLTCLVKGFYPSDIAVEWESNGQPENNYKTTPPVLDSDGSFFLYSKLTVDKSRWQQGNVFSCSVMHEALHNHYTQKSLSLSPGK
light: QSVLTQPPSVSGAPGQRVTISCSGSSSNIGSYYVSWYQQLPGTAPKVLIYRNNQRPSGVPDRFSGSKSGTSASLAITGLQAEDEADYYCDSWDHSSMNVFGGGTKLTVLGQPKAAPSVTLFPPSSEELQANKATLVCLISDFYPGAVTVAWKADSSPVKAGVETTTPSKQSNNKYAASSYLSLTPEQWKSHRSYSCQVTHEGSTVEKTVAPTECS
notes: lambda 1 light chain, VH3-15 framework
For B2, the Kd [1] was 8200 nM, the koff [1] was 0.111 s⁻¹ and the kon [1] was 13600 M⁻¹ s⁻¹. The binding result [2] was “no binding (tested: 300 nM)”, the binding result [3] was “no binding (tested: 300 nM)” and the EC50 [4] was 4.5 nM. It also gave a Kd [5] of 0.02 nM, a koff [5] of 9.99e-06 s⁻¹ and a kon [5] of 476000 M⁻¹ s⁻¹. For the same binder, the “binding ratio (signal / signal of MOR03207)” value (Amyloglycosidase) was 1, the “binding ratio (signal / signal of MOR03207)” value (RNase A) was 2 and the “binding ratio (signal / signal of MOR03207)” value (Antitrypsin) was 1. For the same binder, the “binding ratio (signal / signal of MOR03207)” value (Trypsin inhibitor) was 2, the “binding ratio (signal / signal of MOR03207)” value (Lysozyme) was 1 and the “binding ratio (signal / signal of MOR03207)” value (Hemoglobin (h)) was 1. For the same binder, the “binding ratio (signal / signal of MOR03207)” value (anti-human Fc) was 1, the “binding ratio (signal / signal of MOR03207)” value (Fc (h)) was 1 and the “binding ratio (signal / signal of MOR03207)” value (Pepsinogen) was 1. For the same binder, the “binding ratio (signal / signal of MOR03207)” value (Trypsinogen) was 1, the “binding ratio (signal / signal of MOR03207)” value (Protein A) was 1 and the “binding ratio (signal / signal of MOR03207)” value (Ovalbumin) was 1. The “binding ratio (signal / signal of MOR03207)” value [6] was 1.
